Assay results reported in the supplement of paper PMC12455559.

Assay: purified protein yield per well (BCA); higher = higher soluble expression
Procedure, shortened: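 Expression was done in E. coli C41(DE3), using 2 mL autoinduction cultures with 100 µg/mL kanamycin incubated at 37 °C for 2 h and at 18 °C for 40 h. Protein was purified on Ni-charged magnetic beads and released by SUMO protease cleavage. Yield of purified protein per well was measured with the Pierce Rapid Gold BCA kit; values below 25 ug (0.1 mg/mL) are below detection.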

Sequence | purified protein yield per well
MCHISAPVPPRAPGCPQFAHWLEVRAVLGSNGAFPTSGRTGADPSGARGTGGRWRRGVAALSTAAVLGALTVVGAVQSASGADNPYQRGPDPTASYVSGSRGSFATAQVSVPAGNGFGGGVIYHPTDTTQGTFGAIAVVPGYTATWAAEGAWMGHWLASFGFVVIGIDTNGREDWDTARGTQLLAALDYLTQRSSVRDRVDASRTAVMGHSMGGGGAMYAALQRPSLKTTVGLAPFSPSQNLTNLRVPAMLLSGQNDTTTTPSSIVNLYNGIPAATEKAYLELSGVGHSFPTSSNPTMMRNVIPWLKIFIDSDTRYTQFLCPLSNSNGIRSYQNTCPLVPSSVPTTSSTTTSTSTTTTTTTTTTTTTTTSVPVGACSASFRTTNTWPGGYQGEVTVTAGSSAVNGWTVQWTLDSGQSISQVWNGTLSVSGSAVSVRNVSYNGSLPPNASATFGFIGGGSPSTSPFTCTSP [ESM077] | < 25 µg
ATGPSAPCTNCTRGPAPTTAALKSNTGPFTTAKFSVSGLLKGFGNSTVYYPTNTTGKMGAIAVIPGFLSYEDSIEWWGPRLASHGFVVMTMNTSTIYDQPDSRATQLSKALDYVISQSNTSSSPIYGKVDSTRLGAIGWSMGGGGSLKLSTQRSLNAIIPQAPYYAGLNSFNTIKTPALILACSADAVAPVGVHASPFYNKIPSTTPKAFLEIYGGSHFCANSGYPNQDLLGLYGISWMKRFIDFDTRYSQFLCGPNHTASGTISEYRQNCPY [ESM019] | < 25 µg
MRDGPKFGTATVYYPENAQAPYASLLIVTGFVHPESAMKAWGPFLASHGIVTLTIGTNKLKDDPFKRRDALLDAVRSLKAEHLRKDSPLWHKLALDRIGVAGWSMGGGGAQLAAAADPSLRAVIGFCPWLPKANFEHPVPSLIIAGTLDSIANVFLNARAHYAGISETTPKLIIEIPYGGHWIANDPANANGAIGQIGLSWLKVYLEGDTRYRQFLLTPPISGGYFRHNLE [TEP077] | < 25 µg
AEDNPHERGPAPTQQSIEAEKGPFEVDKVTVPGGDGFAGGTIYFPKDTSKGKFGGVAISPGFMSFEAMVSWYGPRLASQGFVVFTIGTFTPMDIPSSRADQLLASLKFLVEKSPAKDRVDGTRLALMGHSMGGGGTLHAAARTPGLQAAIPLTPWELTSDFSKVQVPTLVFTGQADFVAPASMGKSFYQSIPDSTEKGYVELAGGSHFDPLFPNVTYAKYSISWLKRFVDNDTRYDQFLCPVPKDPKLSAIEETCPLG [DP013] | < 25 µg
QDCDSLKISSISNPGPYKVKKILEKDGLRDGPDYYGATLYYPEDATPPFASIVIVPGFWSYEPSIQAWGPFLASHGIVTLTIGTNILSDFPEQRALALLDAAETIKQEIIRESSPLYGSLDPTKIAVSGWSMGGGGAQMAAVLDTTLKAVMALAPWQNTQLTETAFNHPVPTLIFSGEKDPTAPASMHATVHYNYTPQTTSKLLFEIKNGNHSVANTPEGGNGDVGRIAIAWLKNLLVGQPCYCPLLLDPPVSASKYVTNLQCSSIASVSRPDGKDDFSP [TEP159] | < 25 µg
SSVNCDSLAQIALLNPGPYSVSSLDESDNIRNGPDYAGAHIYYPTNASGSLSSIVLVPGFMNFESTLQNWGPFLAAHGIVTMTIGANYLTDSPTHRKEALLDAIVTLKAEQTRIGSPLYYSLNINNFAVGGFSMGGGGAQLAAVSDPTIKAIIALNPYLSNASEADFNHNCPVLITSGELDFIANPNLHANVHYAVTPDSTPKQLYEIQNAGHDPLIGPNGGYGEVGMKVLSWLQAFLNDNHCYCPPILTVPTTASSFTHNIVCEDLFIQGCTDSTACNYNPNATIDDGSCETQSCACPGDLNGDYAITVADVLLTLSEFGCMTNCTADIDGDGFVNVTDILELLSMFGTVC [TEP145] | < 25 µg
FRSRGATIFYPEEPSHPLASIVIVPGWSSSERSIRAWGPFLASHGMVTMTIGTNNPPRDFPEQRAAALLDAIATLRAENARDTSPIFEKLDLSRIAVGGWSMGGGGAQLAAVQDPALKAAIGLCPWHEAPDIFEHTVPLLIIGGEKDRRAPFNEHGLVHYCTTPPATPKLLFEVRDAGH [TEP100] | < 25 µg
QSNPYQRGPNPTRAALMTDGPYAVATASVWPYIYGFGGGTIYYPTGTTETFGGIAVSPGFTADSTSLAWFGRRLASHGFVVIVINTNSRFDFPDSRASQLQAAIDYLRTNSPAAVRARLDENRIAVAGHSMGGGASLRASERLPWLKASVPLTPWHTDKTFSTSVPQLIIGAEWDTIAPVSSHAIPFYNNLPSSTPKVYLELNNATHFAPNTTNATISLYAISWMKRWVDNDTRYNQFLCGVNHTADPSISDYRTNAWTYCP [DP073] | < 25 µg
LTLDDLKKDGPYAVSSQTIPGSGFGKGTIYSPNAAGKYALVAVVPGFVSAESSMTEISKRLATHGFVVVTIGTKTLLDFPSSRASQLLAALKAASAVTTGPVAGKIDVTRQVVSGWSMGGGGTLEAAASTPGLKAAVAYAPWNLSSTKYKAITVPSAIIGGTADTVASVSAHSQPFYNAIPATTRKLLGVIQGADHFFPNKAVDPASYTNIAWVKRFADGNTAYAPFLAGQDAAWASFVSTGPF [ESM087] | < 25 µg
IENGPAPTLADLQKDGPYAVTSQVVKGSGFGGGTVYSPNTAGKYALVAVCPGFVSPQSSMTDMSKRLATHGFVVVAITTNTLFDFPSSRATQLLAALKTVAALNTGAAAGKIDITRQVVSGWSMGGGGTLEAAGVTPGLTAAVAFAPWDTATTKMKTLTVPVAIFGGTNDTIAPVSGHSQKFYDIIPATTKKMLAVITGADHFFPTKASEPTSYSNISWVKRFADGDTRYSQFLNGQDAALASFTSTGPF [ESM138] | < 25 µg
ATTTLLAESFDNGFGVFSAQGYASTDNGVAVLRGGSADGTITSGAVPAAGQTNLTLSWTQTTSRLDAGESLVVEWSTGSSWSSLSSERSSGVLSVGLPTAAASNALQLRFRVDASSYYERVDVDDVVLTAGDGGGSGNPYAKGPDPTWNSIEATTGPFEVDDYDISSFAADGFGGADVYYPSDAGSATFGGIAISPGYTASRSTVTWLGPRIASQGFVVIVIDTNSRYDQPASRGDQLLAALDQLVNDSDVSHLVDPNRLAVMGHSMGGGGSLEAADDRPSLRAIVPLQGWNSDKTWSQVQVPALLIGGENDSVAPDSSHSQRFYDSLGGEKVYLQLNNASHFASNSPNTTIASYSIAWLKRWVDEDTRYSQFVCGPDAGQGSAISDYRTTCPV [DP065] | < 25 µg
VANPYQRGPAPTEASVTAKLGPFAIASKKVGAFSHPGIREGTVYYPTDTSQGTFGAIAVAPGFVSPEALVSWYGPRLASQGFVVMTLEITTGFDLPEARAAQLLSALDFMKKDNTIKNRIDPNRLAVMGWSMGGGGTLRAAQQSASLKAAIPLAPWDLGMDWSNVRVPTMIIGGDNDFVASPGFHAEPFYTQLADEKAYLELENAGHFTFTSDNNTIAKYAISWMKRWVDEDTRYTQFLCPPPPAPSPTIQKYRQTCPY [DP046] | < 25 µg
GQSCDSLLLQSITNPGPFPVNNIDENSGIRNGPNYNGSTIYYPANNVNTLYSSIIMVPGFMNTELTIQNWGPFFASHGIITMTIGANGLTDTHIQRRDALLDAIVSLKNENQRVASPLFGKIDTFSIAVGGVSKGGGGAQLVPAIDLSIKAIVSLYPWLDNPTSSDLNHSVPVIIISGQLDALAPPSLHADIHYNLTPNTTNKLKYEVAFGTHDVISGPNGGNGEVGIRVISWLQNFLLSDSCYCPITILDASTSSSYITNVVCSNTTVGISQLEPYFLKKVLKIIDVLGREAEGNKNEPLFYIYNDGTVEKKIIIE [TEP017] | < 25 µg
SASASAPAASRVQAAASGNTYQRGPDPTLSSVAASTGPFATAQVSVPAGYGFKGGMIYYPTDTSLGTWGAVAIVPGYTALFANEEAWMGPWLASFGFVVIGVETNSTTDYDTQRGTELLAALNYLTTQSPVRDRVDPTRLGVIGHSMGGGGVVYATEHQPSLKGAVALAPFSPSQSMATDTVPTMVMGGQNDTVVTPSYLAGLYATLPASTQSDFIQIAGADHIYYTHPNPVEMRILIPWLKTFLDEDTRYTQFLCPTLADPSGVSMYQSKCPYVPGGGSTPPPPAGGALHAVGAGKCVDVPNSTTTSGTQVQIYSCNGQANQAFTHNSAGELAVTDAGVTDCLDANGKGTTNGTKVIIYPCNGQPNQQWTINSNGTITGVQSGLCLDVTGASTANGALVELWTCNGGSNQKWTLS [TEP058] | < 25 µg
GPTDFQRGPAPTEQSITAERGPFATAQTTVDGPNFNKGTAYYPTDTSQGTFGAVAISPGFASPEAVVSWYGPRLASQGFVVLTLETNSGSDLPDSRATQLVNALDFLVQSSSVKDRIDPNRLAVMGHSMGGGGSLKASELRPSLKAAIPLMPWNNDKTWQGDRVPTMIMGAQNDAIASPASHAKPFYDSLTSAPEKAYLELRSEGHLVAVSPNVTIAKYSIAWLKRFVDEDVRYEQFLCPAPTANLQISEYRNTCPTG [DP025] | < 25 µg
QSNPYQRGPAPTASSLEASRGPLAISQFTVSRPSGYRAGTVYYPTNAGGTVGAIAVVPGYTAYQSDINWWGPRLASWGFVVITIDTNSTLDQPSSRSRQQLAALDQVAALSRTSSSPIYNKVDTSRMGVMGWSMGGGGSLISTENRPSLKASIPFAPWNSTSSFSSVVTPTFIIACQSDIIAPVASHADDFYDSLSRPPKMFLEIRGGSHYCANSSNNDKGLLGSKGVAWMKRYIDNDTRFTSYACSNPNTLAVSDFRTARCS [ESM104] | < 25 µg
AGNPYQRGPDPTVASVAATSGPFATAQLSVPPGNGFNGGMIYYPTDTSLGTWGAVAIVPGYTALFANEEAWMGPWLASFGFVVIGVETNSRTDYDVARGTELLAALDYLTQQSPVRDRVDATRLGVIGHSMGGGGVVYATEHRPSLKSAVALAPFSPSQTMATDTVPTMVMGGQNDTVVTPSYLSGLYATMPATTQSDFLQIAGADHVYYTHPNSVEMRILIPWIKTFIDNDTRYTQFLCPALADPTGVSIYQSKCPYVPGGSTPPPPTGGPVHAVGAGKCLDVPNSSTTGGTQLQIYTCDGQSNQTFTHTSTGALSVTDNGTTMCLDANGKGTTSGTKVIIWSCNGQTNQQWNVNSNGTITGVQSGLCLDVSGASTANGALVQLWTCNGQSNQQWKLG [TEP015] | < 25 µg
NPYERGPAPTTASLEASRGPFATSSFTVSRPSGYGAGTVYYPTNAGGTVGAIAIVPGFLARQSSINWWGPRLASHGFVVITIDTNSTFDQPTSRSRQQLAALDQVAALARTSSSPIYNRVDTTRMGVMGWSMGGGGTLISAQNRPSLKAAAPQAPWNNSTNFSSVTVPTLILACESDSTAPVNQHASPFYNSMSRNSKQYLEINNGSHSCANSGNSNQPLIGKRGVAWMKRFMDNDTRYTSFACANPNSTRVSEFRTANCS [ESM076] | < 25 µg
GPGMEGNPYQRGPAPTTASIEAPTGAFAVSNASVPGGNGFGGGTLTYPTDTSQGTFGAVVVTPGFLSPEMKWYGPRLASQGFVVLTIATNTAVDQPGARAAQMLAALRYLVEQSPVKNRVDGSRLAVMGHSMGGGGSLEAAEAYPALKAAIPLEPWDLGKSFSAVRTPTLIVGGQSDWIAPVGQHAVPFYNSIPAGVNKAYIELAGGSHFVPMSPNVTIAKYSIAWLKRFVDNDTRYDQFLCPVPQAAALSVSKGTCPHT [TEP175] | < 25 µg
